Patent publication US20170183380A1 (published 2017)
Where no end group is shown, it is not given here.

Assays:
[1] = biological target: HER2 on HER2-overexpressing breast cancer cells (SK-Br-3: human cell line) (human, UniProt P04626 23-1255); test: cell-based or functional assay
[2] = biological target: HER2 on TUBO cells (mice cell line), HER2-overexpressing (UniProt P06494 23-1257); test: cell-based or functional assay
Chain of HER2 on TUBO cells (mice cell line), HER2-overexpressing (P06494 23-1257): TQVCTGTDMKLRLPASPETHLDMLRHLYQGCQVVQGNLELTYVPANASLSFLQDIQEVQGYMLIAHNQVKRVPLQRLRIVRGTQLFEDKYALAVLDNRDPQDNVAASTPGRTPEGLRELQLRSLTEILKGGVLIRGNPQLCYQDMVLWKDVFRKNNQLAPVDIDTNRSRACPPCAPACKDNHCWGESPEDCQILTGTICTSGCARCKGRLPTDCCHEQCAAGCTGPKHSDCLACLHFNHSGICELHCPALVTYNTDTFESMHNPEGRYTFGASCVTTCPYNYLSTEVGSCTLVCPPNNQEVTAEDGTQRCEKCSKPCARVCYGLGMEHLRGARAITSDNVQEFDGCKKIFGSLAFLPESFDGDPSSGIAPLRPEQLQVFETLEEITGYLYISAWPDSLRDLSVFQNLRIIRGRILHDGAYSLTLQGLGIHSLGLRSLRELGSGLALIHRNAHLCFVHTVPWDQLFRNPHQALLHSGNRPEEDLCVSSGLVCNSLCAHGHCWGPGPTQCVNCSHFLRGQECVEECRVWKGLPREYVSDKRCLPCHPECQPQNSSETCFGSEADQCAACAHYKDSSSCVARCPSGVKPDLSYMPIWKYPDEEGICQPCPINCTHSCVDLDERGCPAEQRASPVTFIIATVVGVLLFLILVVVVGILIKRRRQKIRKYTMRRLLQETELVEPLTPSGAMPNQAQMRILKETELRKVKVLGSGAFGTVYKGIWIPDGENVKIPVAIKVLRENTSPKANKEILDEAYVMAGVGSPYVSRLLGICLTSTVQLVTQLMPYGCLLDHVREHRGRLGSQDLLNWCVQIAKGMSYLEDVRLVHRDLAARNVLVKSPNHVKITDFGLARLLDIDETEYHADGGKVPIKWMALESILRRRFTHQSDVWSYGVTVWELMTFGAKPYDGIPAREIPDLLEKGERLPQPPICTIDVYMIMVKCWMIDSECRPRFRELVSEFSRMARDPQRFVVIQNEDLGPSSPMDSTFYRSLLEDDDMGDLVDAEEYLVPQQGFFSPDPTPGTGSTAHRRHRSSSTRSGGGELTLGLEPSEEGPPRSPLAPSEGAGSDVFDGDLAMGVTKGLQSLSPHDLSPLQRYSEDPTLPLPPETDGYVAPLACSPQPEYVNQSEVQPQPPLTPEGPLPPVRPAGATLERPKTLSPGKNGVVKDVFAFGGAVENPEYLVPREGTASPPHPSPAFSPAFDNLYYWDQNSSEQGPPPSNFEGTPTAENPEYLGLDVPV

Binder	IC50 (cytotoxicity, MTT assay), SKBR3 cells, 3 hours [1]	IC50 (cytotoxicity, MTT assay), SKBR3 cells, 6 hours [1]	IC50 (cytotoxicity, MTT assay), TUBO cells, 3 hours [2]	IC50 (cytotoxicity, MTT assay), TUBO cells, 6 hours [2]
C(Maleimide‑PEG2000‑DSPE)GGGLTVSPWY (not fully specified; also: order of spacer and peptide assumed) [LTVSPWY (SEQ ID NO: 1) peptide-liposome, post inserted liposome 25 Ligand]	24.9 µM	12.8 µM	11.1 µM	5.5 µM
C(Maleimide‑PEG2000‑DSPE)GGGLTVSPWY (not fully specified; also: order of spacer and peptide assumed) [LTVSPWY (SEQ ID NO: 1) peptide-liposome, post inserted liposome 50 Ligand]	21.5 µM	10.4 µM	9.7 µM	4.6 µM
C(Maleimide‑PEG2000‑DSPE)GGGLTVSPWY (not fully specified; also: order of spacer and peptide assumed) [LTVSPWY (SEQ ID NO: 1) peptide-liposome, post inserted liposome 100 Ligand]	17.9 µM	6.07 µM	8.08 µM	3.9 µM
C(Maleimide‑PEG2000‑DSPE)GGGLTVSPWY (not fully specified; also: order of spacer and peptide assumed) [LTVSPWY (SEQ ID NO: 1) peptide-liposome, post inserted liposome 200 Ligand]	15.2 µM	4.9 µM	6.5 µM	2.5 µM
